Experiment: soluble on expression in E. coli; label from the status in PepcDB or PDB records

| Sequence | soluble on expression in E. coli |
| --- | --- |
| MAKQRVFIAGHRGMVGSAIRRQLEQRGDVELVLRTRDELNLLDSRAVHDFFASERIDQVYLAAAKVGGIVANNTYPADFIYQNMMIESNIIHAAHQNDVNKLLFLGSSCIYPKLAKQPMAESELLQGTLEPTNEPYAIAKIAGIKLCESYNRQYGRDYRSVMPTNLYGPHDNFHPSNSHVIPALLRRFHEATAQKAPDVVVWGSGTPMREFLHVDDMAAASIHVMELAHEVWLENTQPMLSHINVGTGVDCTIRELAQTIAKVVGYKGRVVFDASKPDGTPRKLLDVTRLHQLGWYHEISLEAGLASTYQWFLENQDRFRG | soluble |
| MGSDKIHHHHHHMPRKTTSLCRRILLENYTTRGEKMITNLSDRVFVIGTGTSANSVLVCGKKFCVLFDSTLFPEKARKIKEFAAEILGKEIAVVFNTHYHPDHTFGNEVFDRIISHSLTRKSLEEMDEEYIRKIGVEVSLKFPDETFSERENYRFGDIVVEAVHLGGHTPDSSIFVLKNEKIVICGDLLTTGIHAEIVTDSDLFGWIEALSEIEKIRADYFVPGHGKVGTIEDVRNMKDYISKVLRFREGSVKHSELLEDPNFINREHPELLTWGLENIIR | not soluble |
| MGSDKIHHHHHHMPYDSTDREIMRFLQGDIPLESRPYKNLAERLELSEEEIVLRVKKLREKGFLRRMGAVLRHRQAGFAVNAMVAWKLENEEQADRAGKIMAGYKEISHCYIREVPPDFDYSIFSMIHVKNEERLAEIIEEISLQTGIGKYIIIRSSRELKKESMQYF | not soluble |
| MTLTPEASKSVAQPPTQAPLTQEEAIASLGRYGYGWADSDVAGANAQRGLSEAVVRDISAKKNEPDWMLQSRLKALRIFDRKPIPKWGSNLDGIDFDNIKYFVRSTEKQAASWDDLPEDIRNTYDRLGIPEAEKQRLVAGVAAQYESEVVYHQIREDLEAQGVIFLDTDTGLREHPDIFKEYFGTVIPAGDNKFSALNTAVWSGGSFIYVPPGVHVDIPLQAYFRINTENMGQFERTLIIADEGSYVHYVEGCLPAGELITTADGDLRPIESIRVGDFVTGHDGRPHRVTAVQVRDLDGELFTFTPMSPANAFSVTAEHPLLAIPRDEVRVMRKERNGWKAEVNSTKLRSAEPRWIAAKDVAEGDFLIYPKPKPIPHRTVLPLEFARLAGYYLAEGHACLTNGCESLIFSFHSDEFEYVEDVRQACKSLYEKSGSVLIEEHKHSARVTVYTKAGYAAMRDNVGIGSSNKKLSDLLMRQDETFLRELVDAYVNGDGNVTRRNGAVWKRVHTTSRLWAFQLQSILARLGHYATVELRRPGGPGVIMGRNVVRKDIYQVQWTEGGRGPKQARDCGDYFAVPIKKRAVREAHEPVYNLDVENPDSYLAYGFAVHNCTAPIYKSDSLHSAVVEIIVKPHARVRYTTIQNWSNNVYNLVTKRARAEAGATMEWIDGNIGSKVTMKYPAVWMTGEHAKGEVLSVAFAGEDQHQDTGAKMLHLAPNTSSNIVSKSVARGGGRTSYRGLVQVNKGAHGSRSSVKCDALLVDTVSRSDTYPYVDIREDDVTMGHEATVSKVSENQLFYLMSRGLTEDEAMAMVVRGFVEPIAKELPMEYALELNRLIELQMEGAVG | not soluble |
| HISLNPDLANEDEVNSCDYWRHCAVDGFLCSCCGGTTTTCPPGSTPSPISWIGTCHNPHDGKDYLISYHDCCGKTACGRCQCNTQTRERPGYEFFLHNDVNWCMANENSTFHCTTSVLVGLAKN | soluble |
| HHHHHHPEIVDTCSLASPASVCRTKHLHLRCSVDFTRRTLTGTAALTVQSQEDNLRSLVLDTKDLTIEKVVINGQEVKYALGERQSYKGSPMEISLPIALSKNQEIVIEISFETSPKSSALQWLTPEQTSGKEHPYLFSQCQAIHCRAILPCQDTPSVKLTYTAEVSVPKELVALMSAIRDGETPDPEDPSRKIYKFIQKVPIPCYLIALVVGALESRQIGPRTLVWSEKEQVEKSAYEFSETESMLKIAEDLGGPYVWGQYDLLVLPPSFPYGGMENPCLTFVTPTLLAGDKSLSNVIAHEISHSWTGNLVTNKTWDHFWLNEGHTVYLERHICGRLFGEKFRHFNALGGWGELQNSVKTFGETHPFTKLVVDLTDIDPDVAYSSVPYEKGFALLFYLEQLLGGPEIFLGFLKAYVEKFSYKSITTDDWKDFLYSYFKDKVDVLNQVDWNAWLYSPGLPPIKPNYDMTLTNACIALSQRWITAKEDDLNSFNATDLKDLSSHQLNEFLAQTLQRAPLPLGHIKRMQEVYNFNAINNSEIRFRWLRLCIQSKWEDAIPLALKMATEQGRMKFTRPLFKDLAAFDKSHDQAVRTYQEHKASMHPVTAMLVGKDLKVD | soluble |
| MSQANLSETLFKPRFKHPETSTLVRRFSAGKPQAMQSALSGNHVDHWYRLINRLMWIWRGVTPQEILDVQARIVMSEAERTDPELFDTVIGYRGGNWIFEWAKEAMQWQQKAGQEADPLLSGRHWLHASNLYSIAAYPHIKGDELAEQAQALANRAYEEAAQRLPGSLRELEFTIPGGSPITGFLHMPKGEGPFPTVLMCGGLDSLQTDYYNLYENYFSPLGIAMLTIDMPSIGFSSKWTLNQDTSLLHQHALRHLENVPWIDHTRVAAFGFRFGANIAVRLGYLEPQRLKAVACLGPVVHGLLVDPLHQGRVPEMYLDVLASRLGMHDASDEALRVELNRYSLKTQGLLGRRCPTPMLSGFWKDDPFSPEEESRLITSSSADGKLLEIPFNPVYRNFDHALRQIARWINHRFG | not soluble |
| SQDPYFKIANWTNEHDDFKKAEMRMDEKHRKKVDKVMKEWGDLETRYNEQKAKDPKGAEKFKSQMNARFQKTVSSLEEEHKRMRKEIEAVHEERVQAMLNEKKRDATHDYRQALATHVNKPNKHSVLQSLKAYIRAEEKDRMHTLNRYRHLLKADSKEAAAYKPTVIHRLRYIDLRINGTLAMLRDFPDLEKYVRPIAVTYWKDYRDEVSPDISVEDSELTPIIHDDEFSKNAKLDVKA | soluble |
| SGTPNDQAVLQAIFNPDTPFGDVVGLDLEEAEEGDEDGVFPQAQLEHSKALELQGVRAAEAGDLHTALEKFGQAISLLPDRASAYNNRAQARRLQGDVAGALEDLERAVTLSGGRGRAARQSFVQSGLLARFQGRDDDARRDFEKAARLGSPFARRQLVLLNPYAALCNRMLADMMGQLRAPSNGR | soluble |
| MEKVAFIGLGAMGYPMAGHLARRFPTLVWNRTFEKALRHQEEFGSEAVPLERVAEARVIFTCLPTTREVYEVAEALYPYLREGTYWVDATSGEPEASRRLAERLREKGVTYLDAPVSGGTSGAEAGTLTVMLGGPEEAVERVRPFLAYAKKVVHVGPVGAGHAVKAINNALLAVNLWAAGEGLLALVKQGVSAEKALEVINASSGRSNATENLIPQRVLTRAFPKTFALGLLVKDLGIAMGVLDGEKAPSPLLRLAREVYEMAKRELGPDADHVEALRLLERWGGVEIR | soluble |
| MTRKIDYLNYEEIQSLKNSLLHNIKHTYISRYMILTALYTGMRPGEIAVLTWSDIDFKNQTININKSYNHDKGRVDNYDSSEIDKSTKNTNSVRIIKVDKKFLDILSQLKQNDHEKIFIGKDGTIPTSNAVNKVWRKQLEKLNIDKPSFHFHSVRHTHVALLPFKGVPLYAISKRLGHANMSTTAKKYAYMLDELKQQVRLEHHHHHH | not soluble |
| MSLRLNDWQLAFEAYLLGEQAQARAVLQDSLIGGPTLDVETGLAIYHNAYMARLQEVMGSDFPAIRHWLGDAEFQALTQAYIRQCPSRHFSLRWLGQGFAEFILGHLVPEQGAPLAELARLEWAFTLAFDAADAQVLTVAAMAGLDVEQWPQLQLRLAPCVQWLDCRYNSVAQWRAVKEQADFPRSALLDQQQLCLVWRADRVCRYRSLPAEEATALRGMIEQRWNFAELCVGLAVTYAEGAPLQAVTWLKQWVEDGLVMRSESEGHHHHHH | not soluble |
| MCLILFALDAHPRYRLVLAANRDEFYARPTAPAAFWDDAPQVLAGRDLTAGGTWCGVTRDGRIAAVTNYRDPGAHRVGARSRGELVAGFLGGDEAPSRWLEHLQRNGHDYNGFNLIFGDGNGLHYHSNRGAAASPLSPGIHGLSNHLLDTPWPKVARGRDALARLLATADEPAVDDLFAILANRTPAPDHLLPDTGVSLDWERLLSPLFITSPTYGTRSSTVILVDRSGQCTFVERSYNGAADHPRTVEYRFEVITLEHHHHHH | not soluble |
| MEKADIEAIFARSRFISAMNLEILDIDHAGSRFSVRMPLQDTYERGAPGTKQFHGGALAALIDVVGDFAIGMLVGGGVPTMNLRIDYLRPAVGDYVDGVAVVRKAGKSAAVVDIDILCPAGKLVAIGRGTYVPITGLEHHHHHH | not soluble |
| GSMAGSVGAAAPVTAANGDDSESETSESDDDSPPRPAAVAVHKREEDEEEDDEFEEVADDPIVMVAGRPFSYSEVSQRPELVAQMTPEEKEAYIAMGQRMFEDLFE | soluble |
| MSRNDSLISIIVPVYNVEQYLSRCVDSLVNQTYHNIEIILVDDGSPDRSGEICDEYAKKDKRVKVIHQSNGGLSDARNTALDIAKGDYLMFVDSDDWIEKKTCEILNRLASDYKADTVIFGLNFVFDSGKVIRSKRGMAGLTDKNMCMKYLIHNVARGGIFNYACNKMFSSHLFEGLRFPVGRLAEDQDVIYKLIHRSQRIYVTEQPLYNYYQRDGSITAAQYYPRLIRDRHELWLKRLDFIREYYPDLENYQIAQILGAAYVGIVKLEGNKQNGELKKKLICFSNKYILKEKELSVLDRKIKLHYYCYPLFWLYVKLFIK | not soluble |
| MYLDFYGLHAHPFQLTPDPAFFFGANGHTRAKSYLMFGLSQGEGFVVVTGDVGAGKTTLLSHMLRSLSDRSIRVARLSTTQLSADDTARVVARAFGLAEPAHPSKGAWLEAIEVFLTQVRAAGERCVLIVDEVQNMGFAALEELRMLGNLGIDDGHSALQTILVGQPQFRNTLAGPSLDQLRQRIVASCHLGPIEPEEVGHYMRYRLTQAGWRGDPSFEEAVFPAVYRHSGGLPRRINILCSRLLLAGFLQERHDLRAQDVEEVAAELEAEAGEVIGVAGETRAGARLDGRFIDAGSLADLEERVLGIEERLRKVDLVVRRGLLNFSDFVSELNAVWKGRPLEHHHHHH | not soluble |
| MIKSITIRTSREFEIIDITKEVERVVRESNVKSGIVVVFTRHTTTALTINENESGLKRDIEEILSKLVPKGMNYFHDRIDNNAHSHLRGILLGPSLTIPVEDGRLLLGTWQSILFVELDGPRTREVYVKVCECLEHHHHHH | soluble |
| MSLKRVSVIICMFLYFVLTDKAHAQRCLPGTKGLRITAGMTDGFHTADKRNELGYHFGMGMDRYVNGCHKWVFSGEYLQKYYPYKDIRVPVSQFTAEGGYYYNFLSDANKVFLCYAGGSVLAGYETVNWGTGMLFDGSRLCVGDAFVYGGAVSLEIETYLANQVVLLFHARERCLWGNDSGHFHFQFGVGLKIILNEGHHHHHH | not soluble |
| ATGGGTAATAATTTAATGCAGACGGACCTTTCCGTCTGGGGTATGTATCARCACGCCGATATTGTCGTTAAGTGCGTGATGATTGGGCTTATTTTGGCCTCCGTAGTCACCTGGGCAATCTTCTTCAGTAAGAGCGTAGAGTTCTTTAATCAGAAGCGTCGCCTTAAGCGCGAGCAGCAACTGCTGGCTGAAGCGCGTTCCTTAAACCAGGCCAACGATATCGCCGCTGATTTTGGTAGCAAAAGCTTAAGCCTGCATTTGCTCAATGAAGCGCAGAATGAGCTGGAACTGTCAGAAGGCAGCGACGATAACGAAGGTATTAAAGAACGTACCAGCTTCCGTCTGGAGCGTCGGGTCGCCGCAGTAGGTCGTCAAATGGGCCGCGGTAACGGCTATCTGGCAACCATCGGCGCGATTTCGCCGTTCGTTGGGCTGTTTGGTACGGTCTGGGGCATCATGAACAGCTTTATTGGTATCGCGCAAACGCAGACCACTAACCTGGCAGTCGTTGCGCCGGGTATCGCAGAAGCTCTGTTAGCAACGGCAATCGGTCTGGTGGCAGCGATTCCGGCGGTCGTTATCTATAACGTATTCGCGCGTCAGATTGGCGGCTTTAAAGCGATGCTGGGTGATGTCGCAGCGCAGGTATTGTTGCTGCAAAGCCGTGACCTGGATCTGGAAGCCAGCGCCGCTGCGCATCCGGTTCGTGTCGCACAAAAATTACGCGCAGGATAA | not soluble |
